In patent US20260035452A1 (THE UNIVERSITY OF BIRMINGHAM, priority 2022, published 2026):
Marks after values point to notes of the source that are not given here.

Assays:
[1] = Haematological investigations; type: in vivo; settings: mice, 100 μg/mouse
Procedure: To assess the neutralising activity of Ab-IPL-IL-17™, CD-1 mice were injected i.p. with 100 μg/mouse of Ab-IPL-IL-17™, MAB421 or secukinumab as positive controls. After 30 min, an i.p. injection of 10 μg/mouse of IL-17A, IL-17F or IL-17A/F heterodimer was administered. After 2 h blood was collected by intracardiac puncture and serum levels of (A) IL-17A, (B) IL-17F or (C) IL-17A/F heterodimer were quantified by Elisa. (C-F) For the evaluation of immunogenic effects CD-1 mice were injected i.p. with 100 μg of IgG1 isotype antibody (vehicle) or IL-17 neutralising antibodies (bimekizumab, secukinumab, MAB421 or Ab-IPL-IL-17™). In the selected time-point (2 h, 24 h, 72 h, 7 days, 14 days and 21 days) total IgG, IgG1, lymphocytes and platelets levels were determined by Elisa and haematological blood count test, respectively. Data are presented as mean±S.D. for n=5 mice per group. Statistical analysis was conducted by one or two-way ANOVA followed by Bonferroni's for multiple comparisons. *P≤0.05, **P≤0.01, ***P≤0.001 vs IL-17 group; ^#P≤0.05, ^##P≤0.01, ^###P≤0.001, ^####P≤0.0001 vs vehicle group.
Standard laboratory procedures were used for blood sampling and measurements (95). Haematological investigations, for all experimental conditions, including blood count test, leukocyte, and sidereal formula were performed on citrated and not-anticoagulated blood samples, respectively. Serological tests were performed by CELL-DYN Sapphire purchased from Abbott S.R.L. (Milan, Italy). All procedures were conducted under strictly aseptic conditions.
Standard laboratory procedures were used for blood sampling and measurements. Haematological investigations, for all experimental conditions, including blood count test, leukocyte, and sidereal formula were performed on citrated and not-anticoagulated blood samples, respectively. Serological tests were performed by CELL-DYN Sapphire purchased from Abbott S.R.L. (Milan, Italy). All procedures were conducted under strictly aseptic conditions.

patients = patients with IBD; cited from earlier work

## Secukinumab: human anti-IL-17A monoclonal antibody
[1]; 2 h
  GRA (Granulocytes): 0.22 ± 0.16 10^3/μL
  HCT (Hematocrit): 29.56 ± 2.26%
  HGB (Hemoglobin): 9.92 ± 1.78 g/dL
  MCH (Mean Corpuscular Hemoglobin): 17.58 ± 1.42 pg
  MCV (Mean Cell Volume): 61.86 ± 8.95 fL
  MHCH: 30.60 ± 4.27 g/dL
  MID: 0.38 ± 0.31 10^3/μL
  MPV (Mean Platelet Volume): 4.54 ± 0.5771 fL
  PCT (Plateletcrit): 0.27 ± 0.08%
  PWD (Platelet Distribution Width): 16.30 ± 2.15%
  RBC (Red Blood Cells): 5.57 ± 1.18 10^6/μL
  RDW (Red blood cells Distribution Width): 18.14 ± 1.87%
  WBC (White Blood Cells): 3.96 ± 1.19 10^3/μL
[1]; 24 h
  GRA (Granulocytes): 0.24 ± 0.11 10^3/μL
  HCT (Hematocrit): 28.86 ± 1.80%
  HGB (Hemoglobin): 8.88 ± 1.65 g/dL
  MCH (Mean Corpuscular Hemoglobin): 19.10 ± 1.88 pg
  MCV (Mean Cell Volume): 63.60 ± 8.78 fL
  MHCH: 31.54 ± 4.15 g/dL
  MID: 0.44 ± 0.25 10^3/μL
  MPV (Mean Platelet Volume): 5.16 ± 0.8764 fL
  PCT (Plateletcrit): 0.25 ± 0.09%
  PWD (Platelet Distribution Width): 16.06 ± 2.30%
  RBC (Red Blood Cells): 4.48 ± 1.11 10^6/μL
  RDW (Red blood cells Distribution Width): 18.24 ± 1.12%
  WBC (White Blood Cells): 4.44 ± 1.88 10^3/μL
[1]; 72 h
  GRA (Granulocytes): 0.30 ± 0.16 10^3/μL
  HCT (Hematocrit): 21.30 ± 5.47** %
  HGB (Hemoglobin): 6.92 ± 1.53* g/dL
  MCH (Mean Corpuscular Hemoglobin): 21.78 ± 4.20* pg
  MCV (Mean Cell Volume): 81.12 ± 8.84 fL
  MHCH: 30.90 ± 6.72 g/dL
  MID: 0.40 ± 0.25 10^3/μL
  MPV (Mean Platelet Volume): 7.80 ± 1.733**** fL
  PCT (Plateletcrit): 0.16 ± 0.06%
  PWD (Platelet Distribution Width): 18.02 ± 2.61%
  RBC (Red Blood Cells): 3.7 ± 1.05* 10^6/μL
  RDW (Red blood cells Distribution Width): 16.86 ± 3.47%
  WBC (White Blood Cells): 5.10 ± 2.34 10^3/μL
[1]; 7 d
  GRA (Granulocytes): 0.24 ± 0.13 10^3/μL
  HCT (Hematocrit): 22.94 ± 4.68* %
  HGB (Hemoglobin): 7.76 ± 1.31 g/dL
  MCH (Mean Corpuscular Hemoglobin): 21.14 ± 4.82 pg
  MCV (Mean Cell Volume): 71.98 ± 8.64 fL
  MHCH: 29.50 ± 5.03 g/dL
  MID: 0.40 ± 0.16 10^3/μL
  MPV (Mean Platelet Volume): 6.58 ± 1.242* fL
  PCT (Plateletcrit): 0.21 ± 0.05%
  PWD (Platelet Distribution Width): 15.54 ± 2.91%
  RBC (Red Blood Cells): 4.10 ± 0.78 10^6/μL
  RDW (Red blood cells Distribution Width): 18.38 ± 1.90%
  WBC (White Blood Cells): 4.74 ± 1.30 10^3/μL
[1]; 14 d
  GRA (Granulocytes): 0.20 ± 0.10 10^3/μL
  HCT (Hematocrit): 27.88 ± 2.63%
  HGB (Hemoglobin): 9.480 ± 1.36 g/dL
  MCH (Mean Corpuscular Hemoglobin): 17.50 ± 1.09 pg
  MCV (Mean Cell Volume): 63.46 ± 8.13 fL
  MHCH: 29.64 ± 4.38 g/dL
  MID: 0.38 ± 0.13 10^3/μL
  MPV (Mean Platelet Volume): 5.86 ± 0.5128 fL
  PCT (Plateletcrit): 0.25 ± 0.05%
  PWD (Platelet Distribution Width): 15.98 ± 2.03%
  RBC (Red Blood Cells): 5.98 ± 1.42 10^6/μL
  RDW (Red blood cells Distribution Width): 18.06 ± 2.06%
  WBC (White Blood Cells): 3.08 ± 0.86 10^3/μL
[1]; 21 d
  GRA (Granulocytes): 0.20 ± 0.10 10^3/μL
  HCT (Hematocrit): 29.04 ± 2.30%
  HGB (Hemoglobin): 10.16 ± 1.52 g/dL
  MCH (Mean Corpuscular Hemoglobin): 17.62 ± 1.05 pg
  MCV (Mean Cell Volume): 62.56 ± 7.90 fL
  MHCH: 30.34 ± 4.54 g/dL
  MID: 0.34 ± 0.15 10^3/μL
  MPV (Mean Platelet Volume): 4.92 ± 0.4207 fL
  PCT (Plateletcrit): 0.28 ± 0.04%
  PWD (Platelet Distribution Width): 16.14 ± 1.80%
  RBC (Red Blood Cells): 6.25 ± 1.18 10^6/μL
  RDW (Red blood cells Distribution Width): 18.34 ± 1.33%
  WBC (White Blood Cells): 3.280 ± 1.47 10^3/μL
patients
  side effect: intestinal inflammation: enhanced intestinal inflammation
